The values that follow come from article PMC4201484.

Experiment [1] addresses β-TrCP1 (UniProt Q9Y297). The experiment can be described thus: co-IP, anti-HA IP, anti-Flag blot. Conditions: reference: wild type; sites S525.
The target in experiment [2] is β-TrCP2 (UniProt Q9UKB1). As to the kind of experiment: co-IP, anti-HA IP, anti-Flag blot. The conditions noted are these: reference: wild type; sites S525.

Take Rap1GAP (from UniProt P47736) S525A: the “binding against the reference” value in experiment [1] and in experiment [2] was “weaker” throughout.
